# Reference: publication PMC5065165, “Mechanistic Insights into Archaeal and Human Argonaute Substrate Binding and Cleavage Properties”
# B1: D-as2bFAM guide DNA / D-s2b target DNA (dsDNA)
# DNA 1: TAGAGGTACGTGCTGAGGCTT
# DNA 2: GCCTCAGCACGTACCTCTATT
# modifications: 5'-phosphate on guide
# B2: D-as2bFAM guide DNA / 3'-mismatched target DNA (D-s2bmm) (dsDNA)
# DNA 1: TAGAGGTACGTGCTGAGGCTT
# DNA 2: GCCTCAGCAGCGGGAATATTT
# modifications: 5'-phosphate on guide
# Columns and labels:
# [1] = target: T1, MjAgo (Methanocaldococcus jannaschii) (UniProt Q58717); assay: equilibrium fluorescence titration; settings: 5'-phosphate on guide; Stopped-flow at 25 °C, 20 nM FAM-labelled guide, same buffers as titrations (buffer composition not in the material; hybridization buffer 15 mM Hepes pH 7.4 …)
# T1 sequence: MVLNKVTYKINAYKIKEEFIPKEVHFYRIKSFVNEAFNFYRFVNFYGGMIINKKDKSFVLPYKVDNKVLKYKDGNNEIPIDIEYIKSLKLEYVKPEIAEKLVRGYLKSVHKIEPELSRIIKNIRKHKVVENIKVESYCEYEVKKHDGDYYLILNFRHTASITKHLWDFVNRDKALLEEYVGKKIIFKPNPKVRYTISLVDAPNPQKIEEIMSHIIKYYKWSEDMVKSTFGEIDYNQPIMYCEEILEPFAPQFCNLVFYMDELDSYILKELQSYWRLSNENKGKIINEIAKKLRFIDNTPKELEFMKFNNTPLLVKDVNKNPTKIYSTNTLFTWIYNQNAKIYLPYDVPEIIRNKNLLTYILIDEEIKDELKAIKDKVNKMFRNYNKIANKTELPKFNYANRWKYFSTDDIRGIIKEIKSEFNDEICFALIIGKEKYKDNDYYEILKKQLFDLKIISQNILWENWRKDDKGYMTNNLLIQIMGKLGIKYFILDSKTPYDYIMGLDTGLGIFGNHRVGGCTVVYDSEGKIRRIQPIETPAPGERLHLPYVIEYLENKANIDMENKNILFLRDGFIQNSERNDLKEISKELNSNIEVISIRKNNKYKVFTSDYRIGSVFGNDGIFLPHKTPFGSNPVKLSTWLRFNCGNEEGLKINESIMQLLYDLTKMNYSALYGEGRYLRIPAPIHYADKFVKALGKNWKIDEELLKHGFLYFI
# MjAgo [2] = target: T2, MjAgo (Methanocaldococcus jannaschii, UniProt Q58717 1-713); assay: equilibrium fluorescence titration; target binding to preformed MjAgo-guide DNA; Stopped-flow at 25 °C, 20 nM FAM-labelled guide, same buffers as titrations (buffer composition not in the material; hybridization buffer 15 mM Hepes pH 7.4, 50 mM K-acetate, 1 mM Mg-acetate); settings: protein: recombinant; label: C6-linked 5/6-FAM at guide T14; guide preloaded on Ago, target added; 3' overhang 2 nt on both strands
# T2 sequence: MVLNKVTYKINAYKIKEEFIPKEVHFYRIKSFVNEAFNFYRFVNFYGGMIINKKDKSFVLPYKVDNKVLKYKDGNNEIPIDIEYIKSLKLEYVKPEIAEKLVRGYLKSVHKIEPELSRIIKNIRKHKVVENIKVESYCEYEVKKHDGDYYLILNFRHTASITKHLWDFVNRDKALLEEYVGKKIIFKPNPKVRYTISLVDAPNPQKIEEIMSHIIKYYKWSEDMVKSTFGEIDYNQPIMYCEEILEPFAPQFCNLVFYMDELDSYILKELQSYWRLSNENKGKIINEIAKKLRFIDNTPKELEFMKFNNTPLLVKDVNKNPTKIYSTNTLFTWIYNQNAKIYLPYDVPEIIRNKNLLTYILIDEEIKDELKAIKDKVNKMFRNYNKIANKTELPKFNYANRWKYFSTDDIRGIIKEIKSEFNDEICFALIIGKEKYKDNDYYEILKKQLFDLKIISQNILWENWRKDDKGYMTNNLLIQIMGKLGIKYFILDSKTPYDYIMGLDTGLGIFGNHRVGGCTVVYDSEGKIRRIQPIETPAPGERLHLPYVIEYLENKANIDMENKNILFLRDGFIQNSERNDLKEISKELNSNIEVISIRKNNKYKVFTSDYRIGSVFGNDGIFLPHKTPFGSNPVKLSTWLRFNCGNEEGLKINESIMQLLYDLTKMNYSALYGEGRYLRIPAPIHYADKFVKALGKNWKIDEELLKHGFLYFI
# MjAgo [3] = target: T2, MjAgo; assay: equilibrium fluorescence titration; Stopped-flow at 25 °C, 20 nM FAM-labelled guide, same buffers as titrations (buffer composition not in the material; hybridization buffer 15 mM Hepes pH 7.4, 50 mM K-acetate, 1 mM Mg-acetate); settings: protein: recombinant; label: C6-linked 5/6-FAM at T14
# hAgo2 = hAgo2 (human, UniProt Q9UKV8 1-859); assay: stopped-flow fluorescence; three-step; k1 0.1e8 M-1 s-1; Kd n.d.; Stopped-flow at 25 °C, 20 nM FAM-labelled guide, same buffers as titrations (buffer composition not in the material; hybridization buffer 15 mM Hepes pH 7.4, 50 mM K-acetate, 1 mM Mg-acetate); settings: protein: recombinant; label: C6-linked 5/6-FAM at T14
# [4] = target: T3, MjAgo Mid mutant (Tyr442Ala) (Methanocaldococcus jannaschii, UniProt Q58717 1-713, Y442A); assay: stopped-flow fluorescence; two-step, Mid binding phase missing; k3 0.002 s-1; Kd n.d.; Stopped-flow at 25 °C, 20 nM FAM-labelled guide, same buffers as titrations (buffer composition not in the material; hybridization buffer 15 mM Hepes pH 7.4, 50 mM K-acetate, 1 mM Mg-acetate); settings: protein: recombinant; label: C6-linked 5/6-FAM at T14
# T3 sequence: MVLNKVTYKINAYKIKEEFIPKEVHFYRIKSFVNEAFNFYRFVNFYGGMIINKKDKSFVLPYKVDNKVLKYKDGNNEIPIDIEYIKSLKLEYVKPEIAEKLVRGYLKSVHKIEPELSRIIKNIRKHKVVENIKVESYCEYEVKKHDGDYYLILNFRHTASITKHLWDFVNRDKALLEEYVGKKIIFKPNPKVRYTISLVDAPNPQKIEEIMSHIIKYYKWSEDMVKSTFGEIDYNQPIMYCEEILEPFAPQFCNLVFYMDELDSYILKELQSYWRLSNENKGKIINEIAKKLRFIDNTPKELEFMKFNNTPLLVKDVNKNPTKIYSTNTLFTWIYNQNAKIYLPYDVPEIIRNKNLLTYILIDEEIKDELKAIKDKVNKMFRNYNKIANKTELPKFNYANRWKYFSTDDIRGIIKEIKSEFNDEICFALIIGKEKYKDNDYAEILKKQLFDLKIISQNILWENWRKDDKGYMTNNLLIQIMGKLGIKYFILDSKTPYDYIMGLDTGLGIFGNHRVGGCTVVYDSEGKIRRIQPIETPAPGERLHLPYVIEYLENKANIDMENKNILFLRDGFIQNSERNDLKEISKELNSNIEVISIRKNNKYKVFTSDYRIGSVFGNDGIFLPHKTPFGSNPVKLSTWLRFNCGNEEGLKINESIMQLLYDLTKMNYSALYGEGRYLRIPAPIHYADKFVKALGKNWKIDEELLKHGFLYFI
# MjAgo [5] = target: T2, MjAgo; assay: stopped-flow fluorescence; two-step, third phase undetectable; k2 0.018 s-1; Kd n.d.; Stopped-flow at 25 °C, 20 nM FAM-labelled guide, same buffers as titrations (buffer composition not in the material; hybridization buffer 15 mM Hepes pH 7.4, 50 mM K-acetate, 1 mM Mg-acetate); settings: protein: recombinant; partially mismatched; guide preloaded on Ago, target added
# Chain of hAgo2 (Q9UKV8 whole entry): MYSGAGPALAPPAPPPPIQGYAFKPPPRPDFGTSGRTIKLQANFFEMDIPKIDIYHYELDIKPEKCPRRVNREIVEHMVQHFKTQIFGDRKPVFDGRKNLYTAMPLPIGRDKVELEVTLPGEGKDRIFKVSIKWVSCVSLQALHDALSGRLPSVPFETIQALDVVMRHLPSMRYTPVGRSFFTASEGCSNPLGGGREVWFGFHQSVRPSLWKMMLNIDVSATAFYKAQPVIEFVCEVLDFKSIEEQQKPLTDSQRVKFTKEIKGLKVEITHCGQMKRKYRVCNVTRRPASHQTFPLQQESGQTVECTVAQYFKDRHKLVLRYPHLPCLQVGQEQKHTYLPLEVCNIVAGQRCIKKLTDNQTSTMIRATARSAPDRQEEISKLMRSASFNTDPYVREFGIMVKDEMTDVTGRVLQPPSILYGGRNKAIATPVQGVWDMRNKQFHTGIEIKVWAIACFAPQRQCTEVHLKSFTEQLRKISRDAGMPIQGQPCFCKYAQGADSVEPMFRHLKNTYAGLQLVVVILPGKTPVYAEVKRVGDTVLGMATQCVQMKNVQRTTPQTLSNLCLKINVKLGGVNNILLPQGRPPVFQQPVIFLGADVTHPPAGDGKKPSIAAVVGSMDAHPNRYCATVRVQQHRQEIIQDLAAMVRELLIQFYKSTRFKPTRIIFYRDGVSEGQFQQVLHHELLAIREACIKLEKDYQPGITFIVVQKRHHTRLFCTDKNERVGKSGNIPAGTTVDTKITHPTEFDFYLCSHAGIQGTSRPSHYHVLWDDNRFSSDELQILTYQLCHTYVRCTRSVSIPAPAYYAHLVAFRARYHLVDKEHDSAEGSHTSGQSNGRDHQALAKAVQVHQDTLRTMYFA
molecule,measurement,setting,value
"TAGAGGTACGTGCTGAGGCTT / GCCTCAGCACGTACCTCTATT [D-as2bFAM/D-s2b (ds siDNA, D-si2bFAM)]",Kd,[1],103 nM
B1,Kd,MjAgo [2],0.5 ± 0.04 nM
"TAGAGGTACGTGCTGAGGCTT (ssDNA, 5'-phosphate) [D-as2bFAM (ss guide DNA)]",Kd,MjAgo [3],3.4 ± 0.4 nM
same,binding result,hAgo2,binds
same,binding result,[4],binds
B2,binding result,MjAgo [5],binds
